In US20220257733A1, “ANTIGENIC POLYPEPTIDES AND METHODS OF USE THEREOF” (AGENUS INC., priority 2019, published 2022):
Non-standard residues stand in square brackets, D forms with d. No end group written: not given here. pT = C[C@@H](OP(=O)(O)O)[C@H](N)C(=O)O; pS = N[C@@H](COP(=O)(O)O)C(=O)O

Tests used:
[1] = molecular target: HLA A*02:01 (Homo sapiens, UniProt P04439, D140Y/D185E/D98H/E176V/E277Q/G131W/G231S/I119V/I121R/I166T/I218V/L300P/L318F/N151K/N90K/P208A/P217A/Q86G/Q94H/R138H/R169H/T345S); test: AlphaScreen assay of peptide binding to HLA A*02:01; parameters: key to Kd in nM A*02:01: NT means that binding was not tested; NB means no binding was detected; LB stands for low binding and indicates that while some binding was observed, it was below the level that would allow accurate calculation of a Kd; details: biotinylated HLA A*02:01 with excess β2m, Michaelis-Menten fit
Protocol: (§1) An AlphaScreen® assay was used to evaluate the binding of peptides to HLA molecules. Donor beads conjugated with streptavidin, and acceptor beads conjugated with the anti-human HLA class I antibody W6/32, were used to assess peptide binding. Biotinylated HLAs (A*02:01, B*07:02, C*07:01, or C*07:02) were mixed with a fixed excess of β2m and the mixtures added to each well of a 384-well microplate. Serial dilutions of the synthesized phosphopeptides were added to the wells, and the resultant HLA/β2/peptide mixtures were incubated overnight at 18° C. W6/32 conjugated acceptor beads were subsequently added to the wells, and the mixture was incubated for 1 hour at 21° C. Streptavidin conjugated donor beads were then added to the wells, and the mixture was incubated for a further 1 hour at 21° C.
(§2) The microplate was read using the PerkinElmer® plate reader, and data were plotted using the Michaelis-Menten equation to determine the Kd for each phosphopeptide.
Table 5 lists the Kd of each of the selected phosphopeptides to the indicated HLAs (A*02:01, B*07:02, C*07:01, or C*07:02). NT means that binding was not tested. NB means no binding was detected. […] In each case, the phosphopeptides bound as indicated below.

[2] = molecular target: T1, Biotinylated HLA-A*02:01 with β2m (human, biotinylated (site not stated)); test: AlphaScreen; biotinylated HLA + excess β2m + peptide dilutions, W6/32 acceptor beads, streptavidin donor beads
T1 construct: MHC class I heavy chain mixed with excess β2m
Protocol: as §1, §2

[3] = molecular target: T1, Biotinylated HLA-A*02:01 with β2m; test: AlphaScreen; biotinylated HLA + excess β2m + peptide dilutions, W6/32 acceptor beads, streptavidin donor beads; Michaelis-Menten fit
Protocol: as §1, §2

## CC[C@H](C)[C@H](NC(=O)[C@H](Cc1ccc(O)cc1)NC(=O)[C@H](COP(=O)(O)O)NC(=O)[C@H](CC(C)C)NC(=O)[C@H](CC(C)C)NC(=O)[C@@H](N)CCCCN)C(=O)N[C@@H](CCC(N)=O)C(=O)N[C@@H](CCCNC(=N)N)C(=O)N[C@@H](CC(C)C)C(=O)O [compound 433]
[1]
  Kd: 188 nM

## CC(C)C[C@H](NC(=O)[C@@H](NC(=O)[C@H](CC(C)C)NC(=O)[C@@H]1CCCN1C(=O)[C@H](COP(=O)(O)O)NC(=O)[C@@H]1CCCN1C(=O)[C@@H](NC(=O)[C@H](CCCNC(=N)N)NC(=O)[C@@H]1CCCN1C(=O)[C@@H](N)CCC(N)=O)[C@@H](C)O)C(C)C)C(=O)O [compound 657]
[1]
  Kd in nM A*02:01: NB

## CC[C@H](C)[C@H](NC(=O)[C@@H]1CCCN1C(=O)[C@H](COP(=O)(O)O)NC(=O)[C@H](CCCNC(=N)N)NC(=O)[C@@H]1CCCN1C(=O)[C@@H](N)CO)C(=O)N[C@@H](CO)C(=O)N1CCC[C@H]1C(=O)N[C@@H](CCC(=O)O)C(=O)N[C@@H](CC(C)C)C(=O)O [compound 1179]
[1]
  Kd in nM A*02:01: NB

## CC(C)C[C@H](NC(=O)[C@H](CCC(=O)O)NC(=O)[C@H](CCC(=O)O)NC(=O)[C@H](CC(C)C)NC(=O)[C@H](COP(=O)(O)O)NC(=O)CNC(=O)[C@H](Cc1c[nH]cn1)NC(=O)[C@H](Cc1ccccc1)NC(=O)[C@H](CC(C)C)NC(=O)[C@@H](N)CCCCN)C(=O)O [compound 424]
[1]
  Kd: 203 nM

## CC(C)C[C@H](NC(=O)[C@H](COP(=O)(O)O)NC(=O)[C@H](CCCNC(=N)N)NC(=O)[C@H](CCCCN)NC(=O)[C@H](CO)NC(=O)[C@H](CC(C)C)NC(=O)[C@H](Cc1ccccc1)NC(=O)[C@@H]1CCCN1C(=O)[C@@H](N)CO)C(=O)O [compound 1157]
[1]
  Kd in nM A*02:01: NB

## CC(C)[C@H](NC(=O)CNC(=O)[C@@H]1CCCN1C(=O)[C@@H]1CCCN1C(=O)[C@@H](NC(=O)[C@H](CCCNC(=N)N)NC(=O)[C@@H]1CCCN1C(=O)[C@H](C)N)[C@@H](C)OP(=O)(O)O)C(=O)N[C@H](C(=O)N[C@@H](Cc1ccccc1)C(=O)O)[C@@H](C)O [compound 120]
[1]
  Kd in nM A*02:01: NB

## CSCC[C@H](NC(=O)[C@H](CC(C)C)NC(=O)[C@@H](N)CCC(N)=O)C(=O)N[C@H](C(=O)N[C@@H](CC(C)C)C(=O)N[C@@H](CCC(=O)O)C(=O)N[C@@H](CC(N)=O)C(=O)N[C@@H](CCCCN)C(=O)N[C@@H](CC(C)C)C(=O)O)[C@@H](C)OP(=O)(O)O [compound 654]
[1]
  Kd: 231 nM

## CC[C@H](C)[C@H](NC(=O)[C@H](CO)NC(=O)[C@H](CCCNC(=N)N)NC(=O)[C@H](COP(=O)(O)O)NC(=O)[C@H](CC(C)C)NC(=O)[C@@H](N)Cc1ccccc1)C(=O)N1CCC[C@H]1C(=O)N[C@@H](CO)C(=O)N[C@@H](CC(C)C)C(=O)O [compound 228]
[1]
  Kd: 641 nM

B1: YRLsPEPTPL (peptide)
peptide: YRL[pS]PEPTPL
notes: predicted HLA-C*07:02 (not tested on it)
[2]
  binding result: no binding

## APR[pT]PPGVTF (predicted HLA-B*07:02) [APRtPPGVTF]
[2]
  binding result: no binding

## KLFHG[pS]LEEL (predicted HLA-A*02:01) [KLFHGsLEEL]
[3]
  Kd: 203 nM

## KLL[pS]YIQRL (predicted HLA-A*02:01) [KLLsYIQRL]
[3]
  Kd: 188 nM

## QLM[pT]LENKL (predicted HLA-A*02:01) [QLMtLENKL]
[3]
  Kd: 231 nM

## SPR[pS]PISPEL (predicted HLA-B*07:02) [SPRsPISPEL]
[2]
  binding result: no binding

B2: SRKsFVFEL (peptide)
peptide: SRK[pS]FVFEL
notes: predicted HLA-B*08:01 (not among the HLAs tested)
[2]
  binding result: no binding

## SPFLSKR[pS]L (predicted HLA-B*07:02) [SPFLSKRsL]
[2]
  binding result: no binding

## FL[pS]RSIPSL (predicted HLA-A*02:01) [FLsRSIPSL]
[3]
  Kd: 641 nM

B3: HRVsVILKL (peptide)
peptide: HRV[pS]VILKL
notes: predicted HLA-B*14:01 (not among the HLAs tested)
[2]
  binding result: no binding
